These results are taken from patent US11466080B2, “Methods of treating cancer using anti-LRP1 polyclonal antibodies” (Children's Medical Center Corporation, priority 2017, dated 2022).

Like-named read-outs stand apart in the source and are kept apart here.

The test system of assay [1] is Tsp-1. The experiment in a line: Western blot of Tsp-1 in lung fibroblasts treated with LN4 conditioned media. In kind it is cell-based. To be noted: WI38 cells, LN4 CM with Rac1 inhibitor. The text has this:
FIG. 11. Western blot analysis of Tsp-1 and β-actin expression in lung fibroblasts that were untreated (−) or treated with LN4 CM alone or in combination with STI.
FIG. 12. Western blot analysis of Tsp-1 and β-actin expression in lung fibroblasts that is were untreated (−) or treated with LN4 CM alone or in combination with Rac1 inhibitor.
Attention was then turned to the mechanism by which PC3M-LN4 cells repress Tsp-1 in the tumor microenvironment. In doing so, LN4 conditioned media (CM) was fractionated over a Cu^2+/heparin sepharose column with increasing concentrations of NaCl. The eluted fractions were used to treat lung fibroblasts and Tsp-1 induction was analyzed by western blot. […] By analyzing the protein content of the eluted fractions by tandem liquid chromatography/mass spectrometry (LC/MS), a protein was identified that was present in the active fractions of LN4 CM, but not present in the adjacent fractions or the fractions eluted with the same NaCl concentrations from PC3 CM. The identified protein was the serine protease PRSS2. […] Finally, the signaling pathway emanating from LRP1 that was mediating the PRSS2-induced repression of Tsp-1 was sought to be delineated. […]
(In general: Immunoblotting shows a protein as a band on a membrane.)

The target in assay [2] is T1, prosaposin (PSAP) (Homo sapiens, UniProt P07602).
T1 sequence (P07602 60-524): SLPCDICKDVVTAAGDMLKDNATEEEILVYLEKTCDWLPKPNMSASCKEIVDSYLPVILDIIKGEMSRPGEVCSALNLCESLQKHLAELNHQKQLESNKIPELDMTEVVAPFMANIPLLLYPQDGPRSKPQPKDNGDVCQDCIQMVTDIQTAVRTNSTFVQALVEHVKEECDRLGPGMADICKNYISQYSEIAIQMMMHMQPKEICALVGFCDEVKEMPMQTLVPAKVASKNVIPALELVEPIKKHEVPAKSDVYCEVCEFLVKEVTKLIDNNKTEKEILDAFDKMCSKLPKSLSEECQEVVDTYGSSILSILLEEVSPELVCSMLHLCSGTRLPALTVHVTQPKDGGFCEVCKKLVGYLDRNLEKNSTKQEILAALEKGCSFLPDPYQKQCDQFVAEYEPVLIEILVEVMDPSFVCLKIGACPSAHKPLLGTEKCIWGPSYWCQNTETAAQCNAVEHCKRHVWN
The experiment in a line: Co-immunoprecipitation of LRP1 peptides with PSAP. It is filed as binding. The procedure: (§1) FIGS. 16A-16B. Co-immunoprecipitation of LRP1 peptides with PSAP (FIG. 16A) or PRSS2 (FIG. 16B).
(§2) To map the binding sites on LRP1 that binds to prosaposin (PSAP) and/or PRSS2, peptides derived from binding domain I of LRP1 (SEQ ID NOs: 3 and 7-18) were tested for their ability to co-immunoprecipitate with PSAP or PRSS2.

The target of assay [3] is PRSS2 (Homo sapiens, UniProt P07478). The assay can be described thus: Co-immunoprecipitation of LRP1 peptides with PRSS2. In kind it is binding. The procedure:
as §1, §2

In assay [4] the test system is p53. The experiment in a line: Western blot of p53 in prostate fibroblasts treated with PC3-conditioned media. In kind it is cell-based. The text has this:
(§3) FIGS. 6A-6B. Western blot analysis of: (FIG. 6A) Tsp-1 and β-actin expression in prostate fibroblasts that were untreated (−) or treated with conditioned media from PC3 cells alone or in combination with RAP, and (FIG. 6B) Tsp-1, p53 and β-actin expression in prostate fibroblasts that were untreated (−) or treated with conditioned media from PC3 cells alone or in combination with the PKC inhibitor Gδ 6983 (PKCi).
(§4) Thus, in order to determine how prosaposin was able to stimulate the expression of Tsp-1 and p53 in tumor-associated fibroblasts, prostate fibroblasts were treated with PC3-conditioned media in the presence and absence of Receptor Associate Protein (RAP), a competitive inhibitor or LRP1 binding. […] To determine whether prosaposin-mediated stimulation of Tsp-1 utilized this pathway, fibroblasts were treated with CM from PC3 cells in the presence and absence of the PKC inhibitor Gö 6983. […] Thus, it is believed that Prosaposin functions via binding to LRP1.

The subject of assay [5] is Tsp-1. The assay can be described thus: Western blot of Tsp-1 in prostate fibroblasts treated with PC3-conditioned media. In kind it is cell-based.
Source text: as §3, §4

Assay [6] concerns Tsp-1. The assay can be described thus: Western blot of Tsp-1 in lung fibroblasts treated with psap peptide. The conditions noted are these: peptide with 25 or 50 μg rhRAP or with Y27632. It is filed as cell-based. The procedure: FIGS. 8A-8B. Western blot analysis of Tsp-1 and β-actin expression in lung fibroblasts, which were (FIG. 8A) untreated (−) or treated with psap peptide alone or in combination with 25 or 50 μg of rhRAP, and (FIG. 8B) untreated (−) or treated with psap peptide alone or with Y27632.
In order to delineate the pathway leading from LRP1 to Tsp-1 stimulation by prosaposin, two pathways that have been reported to be stimulated by LRP1 under different conditions were chosen to be examined: Rho and Rac.

Sequence of PRSS2 (P07478 16-247 limits assumed): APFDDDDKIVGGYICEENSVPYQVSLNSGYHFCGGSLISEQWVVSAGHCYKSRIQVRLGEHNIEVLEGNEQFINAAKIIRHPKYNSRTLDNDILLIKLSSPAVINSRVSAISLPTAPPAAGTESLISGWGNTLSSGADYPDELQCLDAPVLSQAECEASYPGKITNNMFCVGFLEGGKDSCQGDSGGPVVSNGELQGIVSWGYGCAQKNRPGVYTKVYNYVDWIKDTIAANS

Turning to `CCN(CC)CCCC(C)Nc1nc(C)cc(Nc2ccc3nc(C)cc(N)c3c2)n1` (racemic) [Rac1 inhibitor], the “Tsp-1 levels under LN4 CM in presence of the substance” value in assay [1] was “restored to basal levels”.

“Peptide 12: amino acids 140-164 of LRP1, SEQ ID NO: 18, YGTCSQLCTNTDGSFICGCVEGYLL”: the “binding to PSAP (co-immunoprecipitation)” value in assay [2] (listed as peptide 12) is “bind to both PRSS2 and PSAP”. Besides, the “binding to PRSS2 (co-immunoprecipitation)” value in assay [3] was “Peptide 12 (amino acids 140-164 of LRP1, binds to”; in assay [3] (listed as peptide 12) it was “bind to both PRSS2 and PSAP”.

For “Peptide 13: amino acids 151-172 of LRP1, SEQ ID NO: 3, FICGCVEGYLLQPDNRSCKAKN”, in assay [2] (listed as peptide 13), the “binding to PSAP (co-immunoprecipitation)” value is “bind to both PRSS2 and PSAP”. For the same molecule, in assay [3] (listed as peptide 13), the “binding to PRSS2 (co-immunoprecipitation)” value is “bind to both PRSS2 and PSAP”.

For `COc1ccc2c(c1)c(C1=C(c3c[nH]c4ccccc34)C(=O)NC1=O)cn2CCCN(C)C` [Gö 6983, reference compound], the “stimulation of p53 by PC3-conditioned media in the presence of the substance” value in assay [4] was “abolished the stimulation of Tsp-1 and p53”. In addition, the “stimulation of Tsp-1 by PC3-conditioned media in the presence of the substance” value in assay [5] was “abolished the stimulation of Tsp-1 and p53”.

Turning to `C[C@@H](N)[C@H]1CC[C@H](C(=O)Nc2ccncc2)CC1` [Peptide Y27632, Y27632, reference compound], in assay [6], the “effect of co-treatment on stimulation of Tsp-1 by the peptide” value was “completely abrogated”.

B1: RAP: Receptor Associate Protein (RAP), a competitive inhibitor or LRP1 binding (protein, UniProt P30533 35-357, looked up)
Alpha-2-macroglobulin …: YSREKNQPKPSPKRESGEEFRMEKLNQLWEKAQRLHLPPVRLAELHADLKIQERDELAWKKLKLDGLDEDGEKEARLIRNLNVILAKYGLDGKKDARQVTSNSLSGTQEDGLDDPRLEKLWHKAKTSGKFSGEELDKLWREFLHHKEKVHEYNVLLETLSRTEEIHENVISPSDLSDIKGSVLHSRHTELKEKLRSINQGLDRLRRVSHQGYSTEAEFEEPRVIDLWDLAQSANLTDKELEAFREELKHFEAKIEKHNHYQKQLEIAHEKLRHAESVGDGERVSRSREKHALLEGRTKELGYTVKKHLQDLSGRISRARHNEL
Take B1: in assay [6], the “effect of co-treatment on stimulation of Tsp-1 by the peptide” value is given as “blocked the stimulation of Tsp-1 in a dose-dependent fashion”. Moreover, the “stimulation of Tsp-1 by PC3-conditioned media in the presence of the substance” value in assay [5] is recorded as “no longer stimulated Tsp-1”.
